Laboratory results taken from patent US6287813.

Target: tTA (TetR-VP16) (/ Herpes simplex virus) (UniProt P04483)
Assay: cell_activity
Conditions: CHO-TWIN195 without antibiotic; 8.57% with TET

Chain of tTA (TetR-VP16) (/ Herpes simplex virus) (P04483 whole entry): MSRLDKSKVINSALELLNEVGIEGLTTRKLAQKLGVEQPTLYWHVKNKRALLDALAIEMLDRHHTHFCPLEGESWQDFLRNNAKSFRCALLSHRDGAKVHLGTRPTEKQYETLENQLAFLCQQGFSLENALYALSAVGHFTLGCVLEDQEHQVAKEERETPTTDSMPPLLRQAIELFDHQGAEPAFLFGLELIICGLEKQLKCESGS

PhCMV*-1 (tet-responsive promoter)
activity: 18.6 mU/ml SEAP
